Reference: publication PMC11937023

Molecular target: endogenous CD64 (FcγRI) on primary human myeloid cells (human (endogenous in primary human monocytes)) (UniProt P12314)
Chain of UniProt P12314 (P12314 16-374): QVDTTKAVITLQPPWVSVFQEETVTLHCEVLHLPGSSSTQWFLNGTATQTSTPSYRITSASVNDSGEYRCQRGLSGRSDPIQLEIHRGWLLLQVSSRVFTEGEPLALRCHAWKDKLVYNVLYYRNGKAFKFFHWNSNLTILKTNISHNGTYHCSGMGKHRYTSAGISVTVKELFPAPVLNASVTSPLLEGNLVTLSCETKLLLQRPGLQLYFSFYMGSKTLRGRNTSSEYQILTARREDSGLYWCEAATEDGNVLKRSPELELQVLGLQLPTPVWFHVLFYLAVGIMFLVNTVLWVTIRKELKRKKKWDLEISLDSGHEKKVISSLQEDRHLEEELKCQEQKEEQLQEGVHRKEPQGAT

IC50 for inhibiting IL-23 signaling (luciferase in IL-23 reporter cells) in co-culture with R848-stimulated, IFNγ-primed CD64+ THP-1 cells, 16 hours [nM] | Substance
0.477 | guselkumab modified to contain LALA mutations in the Fc domain (antibody)
0.092 | guselkumab (antibody)
